In patent US20130172533A1 (INDUSTRIAL TECHNOLOGY RESEARCH INSTITUTE, published 2013):
One block for each molecule: values may come before it.

Target: T1, human CD34 surface antigen on KG1a cells (human, UniProt P28906 32-385)
T1 construct: whole, on cells; The target was always presented on KG1a cells; No recombinant CD34 was used; also called surface antigen CD34; CD34 antigen
T1 sequence (looked up): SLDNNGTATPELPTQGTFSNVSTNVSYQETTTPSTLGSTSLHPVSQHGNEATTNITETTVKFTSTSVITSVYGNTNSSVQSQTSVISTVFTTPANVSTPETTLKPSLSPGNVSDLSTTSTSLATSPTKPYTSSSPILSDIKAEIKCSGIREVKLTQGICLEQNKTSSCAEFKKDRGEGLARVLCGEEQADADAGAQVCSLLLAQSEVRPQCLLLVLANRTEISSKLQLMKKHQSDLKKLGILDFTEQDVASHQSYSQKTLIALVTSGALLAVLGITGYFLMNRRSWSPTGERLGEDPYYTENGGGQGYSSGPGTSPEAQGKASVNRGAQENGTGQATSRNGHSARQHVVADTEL
Experiment: flow cytometry, antibody titration on CD34+ KG1a cells
Procedure: KG1a cells expressing the surface antigen CD34 were used for determining the antibody binding affinity. The antibody in aliquots were individually added into KG1a cells (about 1×10⁶ cells) and reacted at 4° C. for 1 hour. The cells were washed with the FACS buffer (DPBS buffer with 2% fetus bovine serum) three times and then treated with the goat anti-mouse IgG (H+L) Alexa Fluor 488 responsive to mMy10 IgG and the goat anti-human IgG (H+L) Alexa Fluor 647 responsive to hMy10 IgG at 4° C. for 1 hour. The cells were further washed with the FACS buffer and analyzed under the FACSCalibur flow cytometer.
For determining the binding affinity of hMy10 IgG and mMy10 IgG to the surface antigen CD34 of human stem cells, a KG1a cell line was used as the cell expressing the surface antigen CD34.

Kd: 6.7 nM
Molecule: anti-My10 murine monoclonal antibody (mMy10 IgG)

Kd: 6.9 nM
B1: humanized My10 IgG (hMy10 IgG) (antibody, V domains shown)
VH: EVQLVESGGGLVQPGGSLRLSCAVSGFSLTSHGVHWVRQAPGKGLEWLGVIWGAGRTDYNAAFISRLSISRDISKSQVYLQMNSLRAEDTAVYYCARNRYESYFDYWGQGTLVTVSS
VL: DIQMTQSPSSLSASVGDRVTITCRSSQNLVHSNGNTYLHWYQQKPGKAPKLLIYKVSNRFSGVPDRFSGSGSGTEFTLTISSLQPEDFATYYCSQSTHVPLTFGQGTKVEIKR
notes: also called humanized My10 (hMy10) IgG1; humanized anti-human CD34 monoclonal antibody
